Changes are numbered by the printed parent chain.
T1: huCLL1-Q244-Avi-Tev-His (human, UniProt Q5QGZ9 65-265)
T1 construct: extracellular domain; also called CLL-1 K244Q
T1 sequence (looked up): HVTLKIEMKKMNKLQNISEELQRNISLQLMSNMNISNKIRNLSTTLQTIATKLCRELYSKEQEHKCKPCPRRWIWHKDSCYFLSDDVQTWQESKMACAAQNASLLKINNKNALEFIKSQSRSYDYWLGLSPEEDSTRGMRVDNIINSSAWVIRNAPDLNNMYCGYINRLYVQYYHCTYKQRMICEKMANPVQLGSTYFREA

T2: huCLL1-K244-Avi-Tev-His (human, UniProt Q5QGZ9 65-265)
T2 construct: extracellular domain
T2 sequence (looked up): T1 sequence (looked up) with Q180K

B1: Polypeptide No. 144 (scFv, V domains shown)
VH: QVQLVQSGAEVKKPGASVKVSCKASGYTFTAYYMHWVRQAPGQGLEWMGIIDPSGGSTSYAQQFQGRVTMTRDTSTSTVYMELSSLRSEDTAVYYCARGDYGDYHTLWGQGTLVTVSS
VL: DIQMTQSPSSLSASVGDRVTITCRASQGISSYLAWYQQKPGKAPKLLIYDASSLQSGVPSRFSGSGSGTDFTLTISSLQPEDFATYYCQQSYSTPITFGPGTKVDIKR
notes: scFv
B2: Polypeptide No. 145 (scFv, V domains shown)
VH: QVQLVQSGAEVKKPGASVKVSCKASGGTFSTSYMHWVRQAPGQGLEWMGWIHPDDGNTDYAPKFQGRVTMTRDTSTSTVYMELSSLRSEDTAVYYCARDLGDYDTFDIWGQGTMVTVSS
VL: B1 VL with A25V, A34N, S53N, S56A, I96P, P100Q, D105E
notes: scFv
B3: Polypeptide No. 153 (scFv, V domains shown)
VH: QVQLVQSGAEVKKPGASVKVSCKASGGAFSSYALSWVRQAPGQGLEWMGWMNPNSGNTGYAQKFQGRVTMTRDTSTSTVYMELSSLRSEDTAVYYCAADWMIGGDAFDIWGQGTTVTVSS
VL: B1 VL with G28S, Y32W, S53R, S93G, T94I, I96L, P100G, D105E
notes: scFv
B4: Polypeptide No. 152 (scFv, V domains shown)
VH: QVQLVQSGAEVKKPGASVKVSCKASGGTFSTNAISWVRQAPGQGLEWMGWMNPNSGNTGYAQKFQGRVTMTRDTSTSTVYMELSSLRSEDTAVYYCAKEDYGGNFDYWGQGTLVTVSS
VL: B1 VL with G28S, S30G, S31P, Y32W, S53N, S56A, Y92H, T94L, I96L
notes: scFv
B5: Polypeptide No. 159 (scFv, V domains shown)
VH: B1 VH with T28S, Y32N, M34I, D52N, Q63K, D100N, H105V, T106E, L107D
VL: B1 VL with G28S, Y32W, S53N, Q55E, S56T, S93G, I96L, P100G, D105E
notes: scFv
B6: Polypeptide No. 161 (scFv, V domains shown)
VH: QVQLVQSGAEVKKPGASVKVSCKASGYTFTSYDINWVRQAPGQGLEWMGMINPNSGGTSYAQKFQGRVTMTRDTSTSTVYMELSSLRSEDTAVYYCARELLGESFDYWGQGTLVTVSS
VL: B1 VL with D50G, S53I, P95S, I96F
notes: scFv
B7: Polypeptide No. 148 (scFv, V domains shown)
VH: QVQLVQSGAEVKKPGASVKVSCKASGGTFTTYGISWVRQAPGQGLEWMGWMNPFSDNTDYAQNFQGRVTMTRDTSTSTVYMELSSLRSEDTAVYYCARGTGDDAFDIWGQGTMVTVSS
VL: B1 VL with G28S, S31T, Y32W, L33V, D50A, Y92F, T94I, I96L, P100Q, D105E
notes: scFv
B8: Polypeptide No. 147 (scFv, V domains shown)
VH: QVQLVQSGAEVKKPGASVKVSCKASGYTFTSYHIHWVRQAPGQGLEWVGGIIPSGGSTSYAQKFQGRVTMTRDTSTSTVYMELSSLRSEDTAVYYCARGTNDDHYDYWGQGTLVTVSS
VL: B1 VL with S31N, S53N, Q55E, S56T, I96L, P100G, D105E
notes: scFv
B9: Polypeptide No. 160 (scFv, V domains shown)
VH: QVQLVQSGAEVKKPGASVKVSCKASGGTFTSYDINWVRQAPGQGLEWMGWINPHSGGTNYAQKFQGRVTMTRDTSTSTVYMELSSLRSEDTAVYYCARLVGGDAFDIWGQGTMVTVSS
VL: B1 VL with G28S, Y32W, D50A, S56G, S91G, S93T, I96L
notes: scFv
B10: Polypeptide No. 146 (scFv, V domains shown)
VH: QVQLVQSGAEVKKPGASVKVSCKASGYTFSGHYMHWVRQAPGQGLEWMGWIDPNSGGTNYAQKFQGRVTMTRDTSTSTVYMELSSLRSEDTAVYYCARDYPFYGDNDAFDIWGQGTTVTVSS
VL: B1 VL with A25V, A34N, D50E, Q55E, T94I, I96F
notes: scFv
B11: Polypeptide No. 163 (scFv, V domains shown)
VH: QVQLVQSGAEVKKPGASVKVSCKASGYTFTSYYMQWVRQAPGQGLEWMGWMNPNSGNTGYAQKFQGRVTMTRDTSTSTVYMELSSLRSEDTAVYYCARALYGDYLDIWGQGTTVTVSS
VL: B1 VL with G28P, S30A, S31T, Y32W, A51T, T94L, I96L, T97G, P100Q, D105E
notes: scFv
B12: Polypeptide No. 156 (scFv, V domains shown)
VH: QVQLVQSGAEVKKPGASVKVSCKASGYTFTGYFIHWVRQAPGQGLEWMGWMNPNSGNTGYAQKFQGRVTMTRDTSTSTVYMELSSLRSEDTAVYYCARGDYADWFDPWGQGTLVTVSS
VL: B1 VL with G28S, S31T, Y32W, S52F, S53T, Q55E, S56T, I96L, P100Q, D105E
notes: scFv
B13: Polypeptide No. 149 (scFv, V domains shown)
VH: B6 VH with M50W, I51M, G57N, S59G, L101E, S104W, Y107P
VL: B1 VL with G28S, A34N, D50S, S53N, S91A, Y92I, T94F, I96L, P100Q, D105E
notes: scFv
B14: Polypeptide No. 154 (scFv, V domains shown)
VH: QVQLVQSGAEVKKPGASVKVSCKASGGTFSSYGVTWVRQAPGQGLEWMGWINPNTGGTDYAQNFQGRVTMTRDTSTSTVYMELSSLRSEDTAVYYCAGEVGVGGYDAFDIWGQGTTVTVSS
VL: B1 VL with S31N, Y32W, D50A, T94I, I96L, P100G, D105E
notes: scFv
B15: Polypeptide No. 158 (scFv, V domains shown)
VH: QVQLVQSGAEVKKPGASVKVSCKASGDSFSSYGISWVRQAPGQGLEWMGWINPKSGATTSAQKFQGRVTMTRDTSTSTVYMELSSLRSEDTAVYYCARSTAFDAFDIWGQGTTVTVSS
VL: B1 VL with G28S, Y32W, S53N, Q55E, S56T, I96L, P100Q, D105E
notes: scFv
B16: Polypeptide No. 151 (scFv, V domains shown)
VH: B12 VH with G31D, F33Y, G99V, Y101T, W104Y, F105M, P107V, Q110K
VL: B1 VL with Y32W, S53N, S56T, I96L, P100Q, D105E
notes: scFv
B17: Polypeptide No. 177 (scFv, V domains shown)
VH: B12 VH with G31S, F33Y, I34M, G99S, D100T, A102S, W104S, P107Y
VL: B1 VL with G28S, S31N, Y32W, S53N, Q55E, S56T, I96L, P100Q, V104L, D105E
notes: scFv
B18: Polypeptide No. 162 (scFv, V domains shown)
VH: QVQLVQSGAEVKKPGASVKVSCKASGYTFTNYGISWVRQAPGQGLEWMGWINPNSGGTNFAQKFQGRVTMTRDTSTSTVYMELSSLRSEDTAVYYCARGTNGDELDYWGQGTLVTVSS
VL: not shown
notes: scFv
B19: Polypeptide No. 155 (scFv, V domains shown)
VH: QVQLVQSGAEVKKPGASVKVSCKASGYTFTSYDINWVRQAPGQGLEWMGWMNPSSGDSGYAQKFQGRVTMTRDTSTSTVYMELSSLRSEDTAVYYCARPERSDAFDIWGQGTTVTVSS
VL: DIQMTQSPSSLSASVGDRVTITCRASQSIGPWLAWYQQKPGKAPKLLIYDASNLEAGVPSRFSGSGSGTDFTLTISSLQPEDFATYYCQQSFSSPLTFGGGTKVEIKR
notes: scFv
B20: Polypeptide No. 157 (scFv, V domains shown)
VH: QVQLVQSGAEVKKPGASVKVSCKASGYTFSDYYIHWVRQAPGQGLEWMGIINPSGGSTSYAQKFQGRVTMTRDTSTSTVYMELSSLRSEDTAVYYCARGMTDDAFDIWGQGTMVTVSS
VL: B19 VL with S28G, G30S, P31S, A56T, S91T, F92Y, S93A, S94I, V104L
notes: scFv
B21: Polypeptide No. 150 (scFv, V domains shown)
VH: QVQLVQSGAEVKKPGASVKVSCKASGYIFTSQYIHWVRQAPGQGLEWMGWINPNSGGTNYAQKFQGRVTMTRDTSTSTVYMELSSLRSEDTAVYYCARDPWGAYGGDAFDIWGQGTMVTVSS
VL: DIQMTQSPSSLSASVGDRVTITCRASQGISNNLNWYQQKPGKAPKLLIYDASHLDTGVPSRFSGSGSGTDFTLTISSLQPEDFATYYCQQNYSPPPTFGQGTRLEIKR
notes: scFv
B22: Polypeptide No. 164 (scFv, V domains shown)
VH: QVQLVQSGAEVKKPGASVKVSCKASGYTFTAHYIHWVRQAPGQGLEWMGIINPNGGRTTYAQKFQGRVTMTRDTSTSTVYMELSSLRSEDTAVYYCARDSDFWSGYYSDYYYGMDVWGQGTTVTVSS
VL: DIQMTQSPSSLSASVGDRVTITCQASQDISNFLNWYQQKPGKAPKLLIYATSTLQSGVPSRFSGSGSGTDFTLTISSLQPEDFATYYCQQSYTTEWTFGQGTKVEIKR
notes: scFv

target: T1, huCLL1-Q244-Avi-Tev-His; assay: BLI

Binding result, binds:
B1, B2, B3, B4, B5, B6, B7, B8, B9, B10, B11, B12, B13, B14, B15, B16, B17, B18, B19, B20, B21, B22

target: T2, huCLL1-K244-Avi-Tev-His; assay: BLI

Binding result, binds:
B1, B2, B3, B4, B5, B6, B7, B8, B9, B10, B11, B12, B13, B14, B15, B16, B17, B18, B19, B20, B21, B22
